Assay results published in doi:10.1101/2023.05.17.540984.
Where two headings read alike, the source gives them in different places.

T1: ELK1 (UniProt P19419 1-428)
T1 sequence: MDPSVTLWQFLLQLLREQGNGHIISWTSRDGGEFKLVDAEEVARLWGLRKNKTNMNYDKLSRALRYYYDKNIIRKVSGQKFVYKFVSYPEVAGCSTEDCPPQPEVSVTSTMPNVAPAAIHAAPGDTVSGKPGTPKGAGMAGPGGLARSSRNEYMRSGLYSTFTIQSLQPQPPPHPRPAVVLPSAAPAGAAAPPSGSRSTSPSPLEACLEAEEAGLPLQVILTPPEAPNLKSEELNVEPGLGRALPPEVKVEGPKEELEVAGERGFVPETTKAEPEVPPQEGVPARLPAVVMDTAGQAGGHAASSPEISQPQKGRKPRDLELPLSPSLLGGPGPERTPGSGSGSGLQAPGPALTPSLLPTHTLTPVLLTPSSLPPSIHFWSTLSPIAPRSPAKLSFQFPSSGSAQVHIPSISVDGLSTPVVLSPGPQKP


Tests used:
ELK1 [1] = molecular target: T1, ELK1; assay: EMSA
ELK1 [2] = molecular target: T1, ELK1; assay: EMSA; remark: listed apart in the source

| Binder | binding result (ELK1 [1]) | binding result (ELK1 [2]) |
| --- | --- | --- |
| rs8040749-G probe (centenarian allele) (dsDNA) DNA 1: CCTGCCTTCCGGAAGTTCATG DNA 2: CATGAACTTCCGGAAGGCAGG | binds |  |
| rs8040749-A probe (reference allele) (dsDNA) DNA 1: CCTGCCTTCCAGAAGTTCATG DNA 2: CATGAACTTCTGGAAGGCAGG |  | no binding |
